This note sets out measurements from the supplement of paper PMC9170038.

The test system of the data set is MS2 coat protein. In words: apparent KD of MS2 coat protein; designed switch direction (-1 OFF switch, 1 ON switch): -1; higher = weaker reporter binding. The essentials: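 For each design, the apparent KD is the median over clusters of curves fitted to normalised cluster fluorescence. Clusters held RNA switches with common flanks, transcribed on Illumina chips by stalled E. coli RNA polymerase. These were titrated with SNAP-549-labelled MS2 coat protein, doubling from 0.7 or 1.5 nM to 3 µM, without input, with 200 uM small-molecule ligand, or with an oligonucleotide input.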

The mark [1] stands for this setting: Eterna round: R95, input ligand: FMN 200 uM.
Setting [2] is: Eterna round: R95, input ligand: microRNA oligo, concentration not stated.
The mark [3] stands for this setting: Eterna round: R95, input ligand: none.
[4] abbreviates: input ligand: microRNA oligo, concentration not stated.

As for “GGUACUAACAGCUGACUGUUAGUACUGUAGGUUUGUGUUACAUGAGGAUCACCCAUGUCCUCAUAGGCUCGUCUUGU [JL-sv3-2.24 mat747 mod] (puzzle: Sensor v3, turn-off variant 2)”, the “apparent KD of MS2 coat protein” value turned out to be 281 nM under setting [1], 91.5 nM under setting [2] and 739 nM under setting [3].

For the sequence “AAUAGCAAGUAAGAUCCUAACAUGAGGAUCACCCAUGUGCUCGUCUUAUAAAGUACUAUCACGAAAGUGAUAGUACA [Sensor 3, v1 - 47] (puzzle: Sensor v3, turn-off variant 1)”, the “apparent KD of MS2 coat protein” value by setting is: under setting [1], 64.8 nM; under setting [2], 51.4 nM; under setting [3], 74.3 nM.

With “ACUUACUGAGGAUAUACAUAGAUUUACAUGAGGAUCACCCAUGUUCCUCUAUGUAUAAAUGUAGAAGGCAGAAGAU [Mat - Exclusion 5 - JL Mod - D55] (Eterna round: R97, puzzle: Exclusion 5)”, the “apparent KD of MS2 coat protein” value came out at 64.2 nM (input ligand: FMN 200 uM) and 17.8 nM (input ligand: none).

In the case of “UUUUAGUCAGGAUAUACAUGAGGAUCACCCAUGUAAAAUUUUAAUUUAAUUUUAAGGUGUAGAAGGGACAUUUU [Ex3 #5] (Eterna round: R97, puzzle: Exclusion 3)”, the “apparent KD of MS2 coat protein” value (input ligand: FMN 200 uM) was 24.5 nM and the “apparent KD of MS2 coat protein” value (input ligand: none) is 27.6 nM.

Regarding “ACAUGUAAUGCAGGAUAUCGGACACAUGAGGAUCACCCAUGUGACCUGAGGUAUUGCUAAGAGUCUGAGAAGGGUAUGUACAUG [Ex NG2 #51] (Eterna round: R96, puzzle: Exclusion NG 2)”, the “apparent KD of MS2 coat protein” value reads like this: (input ligand: FMN 200 uM) 28.7 nM; under setting [4], 15.7 nM; (input ligand: none) 20.4 nM.

As to “ACAAGCUUUUGGAUUUUCAACAUGAGGAUCACCCAUGUUCGUCUUAUGCGAGUGCGAGUGCGGUGUACUCGUAUUAG [JL TOV1 3.86 sellena mod] (Eterna round: R97, puzzle: Sensor, turn-off variant 1)”, the “apparent KD of MS2 coat protein” value is, setting by setting: (input ligand: FMN 200 uM) 25.3 nM; (input ligand: none) 24.4 nM.

For “UAAUAAAGGGUAGGAUAUGCCGAACAAACACGAGCAGAAGGACCAAAACACUACUUGAGGAUCACCCAAGUGUCCUUCCGUGGU [Mutated MS2 EX1.6] (Eterna round: R96, puzzle: Exclusion NG 1)”, the “apparent KD of MS2 coat protein” value by setting is: (input ligand: FMN 200 uM) 52.4 nM; under setting [4], 13.2 nM; (input ligand: none) 17.2 nM.

Take “CAUGCACAUGAGGAUCACCCAUGUCAGGAUAUCUAUCAUAGCAUCGAAAGAUGCGGGUAGAGAAGGGACAACCC [ChP Ext 10-04-2015 #10] (puzzle: Exclusion 1)”: under setting [2], the “apparent KD of MS2 coat protein” value is 15.5 nM.

As to “GCAGCAUAGAUAACAUACUGUUACAUGAGGAUCACCCAUGUAUAGGAUAUGGUCUGGAUUACAGGCCAGAAGGGUACAAGCUGC [Eli exng3 - 022] (Eterna round: R96, puzzle: Exclusion NG 3)”, the “apparent KD of MS2 coat protein” value runs as follows: (input ligand: FMN 200 uM) 12.6 nM; under setting [4], 9.84 nM; (input ligand: none) 14.4 nM.

For the sequence “AGUACUCACACGAAAGUGUUAGUACAAUAAGCUUGUGAAACAUGAGGAUCACCCAUGUCCUCAUAAGCUCGUCUUAU [salish99_TOv2_r3_018] (puzzle: Sensor v3, turn-off variant 2)”, the “apparent KD of MS2 coat protein” value reads like this: under setting [1], 17.6 nM; under setting [2], 1380 nM; under setting [3], 17.1 nM.

As to “AUAAUGUAAGGAUAUAUGAAUCACGGUGAUACACCGUGAAGAUAGAAGGUACAUGAGGAUCACCCAUGUAAGGC [Mod of Anonveat 12 - Jieux - Exclusion 4] (Eterna round: R97, puzzle: Exclusion 4)”, the “apparent KD of MS2 coat protein” value was 12.1 nM (input ligand: FMN 200 uM) and 21 nM (input ligand: none).

With “GGUUGGCGAGGAUAUACAUGAGGAUCACCCAUGUGAGAGAAAAAAGUGAGAACGAAAAGUAGAAGGCGCUGACG [salish99-ex3-25] (Eterna round: R96, puzzle: Exclusion 3)”, the “apparent KD of MS2 coat protein” value stood at 315 nM (input ligand: FMN 200 uM), 67.5 nM under setting [4] and 98.8 nM (input ligand: none).

Consider “GCAGAAAGUGUAGGAUAUAUAAAUUAGCGGAAACGCAAUACAUGAGGAUCACCCAUGUUUCCUCAAUAGAAGGGCAAAAGCUGC [EXNG2 V2 e] (Eterna round: R96, puzzle: Exclusion NG 2)”, for which the “apparent KD of MS2 coat protein” value by setting is: (input ligand: FMN 200 uM) 88 nM; under setting [4], 37.9 nM; (input ligand: none) 79.8 nM.

Regarding “CGAUGAGGAGUGAGGAUAUCGUGUUCGAAAGAACGUGAGAAGGCACAUGAGGAUCACCCAUGUGAACCUUGUCG [Omei Ex4B A10] (Eterna round: R97, puzzle: Brourd's mod of Exclusion 4)”, the “apparent KD of MS2 coat protein” value is, setting by setting: (input ligand: FMN 200 uM) 22.5 nM; (input ligand: none) 15.8 nM.

As to “CAGUACUGAGGAUAUACAUGAGGAUCACCCAUGUGAGAAAUACUAGUGAGGUCGAUUAGUAGAAGGCAGUACUG [Mat - Exclusion 3 - Eli Mod - D31] (Eterna round: R97, puzzle: Exclusion 3)”, the “apparent KD of MS2 coat protein” value was 761 nM (input ligand: FMN 200 uM) and 35.4 nM (input ligand: none).

In the case of “AAGUACCGGUGAGGAUAUUUUUAAUAGAACUUUAUGAUAUACAUGAGGAUCACCCAUGUUACUUUAAAGAAGGCAUCGGAUAAA [Mat - Exclusion NG 2 - Mod of JL - D87] (Eterna round: R96, puzzle: Exclusion NG 2)”, the “apparent KD of MS2 coat protein” value under setting [4] came to 12 nM.

With “AAGAAACAUGAGGAUCACCCAUGUGAGGAUAUGUAAAAUAAAAUAAAAUAAAUAAUAAACAGAAGGCACAAAGG [Mat - Mod of Hog D17] (puzzle: Exclusion 1)”, the “apparent KD of MS2 coat protein” value under setting [2] stood at 58.6 nM.

With “AGAUCGUCAGGAUAUACAUGAGGAUCACCCAUGUGUAGUCCAAAUUUGACUACAACAUGUAGAAGGGACGAUCG [Exclusion 3 (MOD2 of #1 Marzena11)] (Eterna round: R97, puzzle: Exclusion 3)”, the “apparent KD of MS2 coat protein” value worked out at 209 nM (input ligand: FMN 200 uM) and 44 nM (input ligand: none).

“UAUUGUUUUUUUUUAAAUUACAUGAGGAUCACCCAUGUUUUUUUUUUUUUGGUGAUUAUUUUUUGUCUUUUUUUUUU [Jieuxbot 037 - Jieux - Sensor v2, turn-off variant] (Eterna round: R96, puzzle: Sensor v2, turn-off variant)”: the “apparent KD of MS2 coat protein” value (input ligand: FMN 200 uM) was 58.5 nM, the “apparent KD of MS2 coat protein” value under setting [4] is 69 nM and the “apparent KD of MS2 coat protein” value (input ligand: none) was found to be 43.3 nM.

As for “UCUCUUGGGCAAGGAUAUCCUGCGCGGUUCCGGUUCGUGUCUGUCACAUGAGGAUCACCCAUGUGGGAGAAGGUGCCUGCGGUG [Design 75] (Eterna round: R96, puzzle: Exclusion NG 2)”, the “apparent KD of MS2 coat protein” value worked out at 32.5 nM (input ligand: FMN 200 uM), 15.8 nM under setting [4] and 17.3 nM (input ligand: none).

For “AUUAUGUAAGGAUAUCUUACAUGUGACUUCGGUCACUGUUCAGAGAAGGUACAUGAGGAUCACCCAUGUAGAAC [Ex4-3: 46] (puzzle: Exclusion 4)”, the “apparent KD of MS2 coat protein” value under setting [2] is 18 nM.

Regarding “CUAUGAGUAGGAUAUGAGCCAAAAUACAUGAGGAUCACCCAUGUCGGGUUCAUGGAGGGCUCAGAAGGAUUCAAUA [Exclusion 5 - Laarte Mod2] (Eterna round: R97, puzzle: Exclusion 5)”, the “apparent KD of MS2 coat protein” value runs as follows: (input ligand: FMN 200 uM) 59.8 nM; (input ligand: none) 17.1 nM.

For “ACAUGUCAUCGAGGAUAUUGGACACAUGAGGAUCACCCAUGUACCCGGAGGCUCUACUAUGAGUUCGAGAAGGCGAUGUACAUG [Ex NG2 #74] (Eterna round: R96, puzzle: Exclusion NG 2)”, the “apparent KD of MS2 coat protein” value was 169 nM (input ligand: FMN 200 uM), 19.5 nM under setting [4] and 25.6 nM (input ligand: none).

Consider “UAUUACUCAGGAUAUAUGAUGUGAAACAUGAGGAUCACCCAUGUAAUAUUAUGGAUGUAAAUAGAAGGGAGAUUUU [Mat - Exclusion 5 - JL mod - D18] (puzzle: Exclusion 5)”, for which the “apparent KD of MS2 coat protein” value is, setting by setting: under setting [1], 51.8 nM; under setting [2], 68.4 nM; under setting [3], 54.8 nM.

Turning to “AAAAGAACGGCAGGAUAUGCAAGCACUGACCUCCCAAAAUAAAGAAACAUGAGGAUCACCCAUGUGCAGAAGGGCCAAAAGUGC [Vediusin] (Eterna round: R96, puzzle: Exclusion NG 2)”, the “apparent KD of MS2 coat protein” value under setting [4] stood at 10.4 nM.

As to “AUCCUUAACAAGGAUAUCGGGCGGGAAAUUGUUUGAGAAGGUGUAACAUGAGGAUCACCCAUGUGGCGCGUGGA [-20.8, -18.9 kcal, A 28%] (Eterna round: R97, puzzle: Exclusion 6)”, the “apparent KD of MS2 coat protein” value worked out at 54.6 nM (input ligand: FMN 200 uM) and 56.6 nM (input ligand: none).

Consider “AACAAGUGAGGAUAUGAACCACUUGCCCACGCAUGCGUGGAUCAGAAGGCACUUGAGGAUCACCCAAGUCCUAA [Texeusso] (Eterna round: R97, puzzle: Exclusion 4)”, for which the “apparent KD of MS2 coat protein” value by setting is: (input ligand: FMN 200 uM) 49.7 nM; (input ligand: none) 21.3 nM.

With “GAUGUGGGUUUCCGGAGUAACAUGAGGAUCACCCAUGUAGAAGUUGGAGGGAUCAAGCUUUUUGGUCGUCAUAUGUG [JR_SV3TOV1_Sub052] (puzzle: Sensor v3, turn-off variant 1)”, the “apparent KD of MS2 coat protein” value is, setting by setting: under setting [1], 288 nM; under setting [2], 246 nM; under setting [3], 422 nM.

On to “UCCUCACAUGAGGAUCACCCAUGUUAGGAUAUUUAAUAGCGCGAAAGACAGUUCUGUAAGAGAAGGAACUGGGC [Edarti] (Eterna round: R97, puzzle: Exclusion 1)”, for which the “apparent KD of MS2 coat protein” value was 14.6 nM (input ligand: FMN 200 uM) and 15 nM (input ligand: none).

Turning to “AGUACUAACACGAUAGUGUUAGUACUAUAAGCUUGUGUUACAUGAGGAUCACCCAUGUCCUCAUAAGCUCGUCUUAG [Mat - Sensor v3 - Turn-off var 2 - D66] (puzzle: Sensor v3, turn-off variant 2)”, the “apparent KD of MS2 coat protein” value stood at 39.8 nM under setting [1], 83.2 nM under setting [2] and 41.6 nM under setting [3].
